Results: the DeepSol protein solubility set

Experiment: soluble on expression in E. coli; label from the status in PepcDB or PDB records

Row | Sequence | soluble on expression in E. coli
1 | MRLLIVLSALLIPCLAQLSEDSSELEFGGQQAQRPSPDGPLFPRFLMHVPRFARKEFFDIVSNDQLSQDQQNEQLTIWAKAFNVTDEFNAWTKKIQEQKEAVSKNVEAVASNITTVYTQLEEILSNSNLTRRDQHDQIRKLATTFPREVRALFFIARNYRPEGRSPIFGQGIGMGKKPQSSMVPFIFQQQQPPMMMFGQQPFMPAGPMMMNRFQQTGSQQNFQSRRGGRGDGPGFVPGTQDNNQRGSGERGQRQNFGPSDNLTNGNQFSKKQFARGPSSMNSDLSENSQHSDSNSQFDFPRGPGGRGGRGQGPDFGPGGQGGRGQGPDFGPQDDFPGRRGSGGPGGRGGRGQGPDFEPQDDFPGRRGSGGPGRRGGRGQGPDFGPQDDFPGRRGSGGPGGRGGRGQGPDFGPGRQGGRGQGPDFGPQDDFSGRRGSGGPGGRGGRGQEPDFGPGGQGGRGQGPDFGPQDDFPGRRGSGGPEGRDGRGQGPDFGPGSQGGRGQDSDSGSQDAFPGRRGSGGPGGRGQGPDFGPQDDFPGRRGSGGPEGRDGRGQGPDFGPGSQGGRGQDSDSGSQDAFPGRRGPGGPGGLGGRGQGPDFGPGGQGDRGQGPDFGARSQGNRGQGPAFESRQPRQFDDADTSSAPSQKYFQRQMNSGMRFDQSSGFGMRKSQSTQQNYENFAEN | not soluble
2 | MRLLPVTLLLGAVIFVSTKSTCRTRTKPPSTVPMNEVTEAVTTKKASNVTVKPTTCEASWTRVERSIGGWCLKVYNGFVHQDQASQACIRIGAELSGSESSAERAVIARLGKERMLAASDYKFGTIRVGIARPTTTRAWALTDGNNDGGQQGIQWSKGEPQLGPTSGYSHNCALMWIWASTGTSPYEHGKYFHKFVHLLGRTCTEDLFVESVLLDF | not soluble
3 | MRLYWRMPTTTPALRPQDLTETAFAPYGWMLGKPLPAGDDVLRFSNPATDFWQEHVFDTGAGAGRETEVLWVNYRISQPGFDTLEKHLLTQQAIVPLTGAIVQIVARSAFDGSPDLASLAAFVVPPGQGICMRPGCWHATRISGGEVTCLMLTRRSTTLDLVRHLHGEPARESEIVAIVPHGLDLPARPTAEGPAPHGRLEHHHHHH | not soluble
4 | MRMKQTIPSSYVGLKINEWYTHIRQFHVAEAERVKLEVEREIEDMEEDQDLLLYYSLMEFRHRVMLDYIKPFGEDTSQLEFSELLEDIEGNQYKLTGLLEYYFNFFRGMYEFKQKMFVSAMMYYKRAEKNLALVSDDIEKAEFAFKMAEIFYNLKQTYVSMSYAVQALETYQMYETYTVRRIQCEFVIAGNYDDMQYPERALPHLELALDLAKKEGNPRLISSALYNLGNCYEKMGELQKAAEYFGKSVSICKSEKFDNLPHSIYSLTQVLYKQKNDAEAQKKYREGLEIARQYSDELFVELFQFLHALYGKNIDTESVSHTFQFLEEHMLYPYIEELAHDAAQFYIENGQPEKALSFYEKMVHAQKQIQRGDCLYEI | not soluble
5 | MRMRLMLLGGGNALGQALIRLGAEEDIAFLAPRPPENGWAPSSLTQLLDDHRPDALVNLAYYFDWFQAESVSEQRLAQQERAVERLAELCQHHQITLVQPSSYRVFDGSRATAYSEKDEPVPLGLRGQALWRIEQSVRAACPQHVLLRFGWLLDESIDGALGRFLTRAEQPQELLLADDRRGNPTPVDDAARVILSVLKQLDCNAPLWGTYHYAGNEATTPLALGQAILAEAGQYRQLAVQAPTPQAHAARPDASEEPQHAVLACKKILHTFGIKPRAWRAGLPPLLDRFYRHG | not soluble
6 | MRNFDLSPLYRSAIGFDRLFNHLENNQSQSNGGYPPYNVELVDENHYRIAIAVAGFAESELEITAQDNLLVVKGAHADEQKERTYLYQGIAERNFERKFQLAENIHVRGANLVNGLLYIDLERVIPEAKKPRRIEIN | not soluble
7 | MRNIYDLANELERGIRALPEYKNLVEKKEAIATDAEASALFKEFTDFQEDFYAKMQAGTMPTAEEQAAVQELGQKVEANALLKEYLTAQQSLSVYLNDIERIIFKPLQELNN | not soluble
8 | MRNLSDRAKFESMINSPSKSVFVRNLNELEALAVRLGKSYRIQLDQAKEKWKVK | not soluble
9 | MRNLTFLTRCKPLAASVLALMLLGGAAKSFANNDLPDLGTAAVNTFSLEKEMIYGDAYMRVIRSSAPMLNDPVLSQYLTELGNKLVAHATGVKTPFYFFLLQNDEINAFAFFGGHVAVHTGLFLNADNESELASVLGHEITHVTQRHLARSLEAQQKTGPATVAGLLGAILLTIAVPQAGMAALATTQAMATQSKINYTRLHEKEADRIGMQILVDAGFDPNASAEFFGKLASRYRFTTTPPQMLLTHPLPESRISEARDRAQQYPHRYVPDNLNFQLAKARIQVRFSSFSDDAVLSMFEKQLNKQTYGFKEAALYGKALALFRLKKFDESEKIVDELLKIDDNNLFYIDTKTDLLNERKDYAQAIKLLEAQRNLKPTSQVINANLANIYIEAGEPAKAIPLLEDMIFLDKQNQLPYQLLNLAYKKLGNPGMEYFSNAELMALGANYKGAIDQLNFAYRASEGNQLQLARIEARIRQFKQADREMDALKLEHHHHHH | not soluble
10 | MRNQELARIFEEIGLMSEFLGDNPFRVRAYHQAARTLYDLDTPIEEIAEKGKEALMELPGVGPDLAEKILEFLRTGKVRKHEELSRKVPRGVLEVMEVPGVGPKTARLLYEGLGIDSLEKLKAALDRGDLTRLKGFGPKRAERIREGLALAQAAGKRRPLGAVLSLARSLLEAIRALPGVERAELCGSARRYKDTVGDLDFLVASREGERAVEGFVRLPQVKEVYAKGKERATVFLKNGLQVDLRVVPPESYGAGLQYLTGSKAHSIRLRALAQEKGLKLSEYGVFRGEKRIAGETEEEVYAALGLPWIPPPLREDQGEVEAALEGRLPKLLELPQVKGDLQVHSTYSDGQNTLEELWEAAKTMGYRYLAVTDHSPAVRVAGGPSPEEALKRVGEIRRFNETHGPPYLLAGAEVDIHPDGTLDYPDWVLRELDLVLVSVHSRFNLPKADQTKRLLKALENPFVHVLAHPTARLLGRRAPIEADWEAVFQKAKEKGVAVEIDGYYDRMDLPDDLARMAYGMGLWISLSTDAHQTDHLRFMELAVGTAQRAWIGPERVLNTLDYEDLLSWLKARRGV | soluble
11 | MRPIEEFVYVGNQVIVPDQASLMRCYYPIIGGEGYALYQYFVAFYDNGNHRHKFATILNHLNFGMQPLQESLAVLTAVDLLAFYHSPQGIYVVELKSPLSIEQFLKHAVYSSLLEQKIGEPAVDALKPTSLHGLQDLSKRFSDVFTDERLAQKSVSEIKPKNSFDLISFRNRMQADGLVFTDEKTDVPEIYKLSETYDMNWYDTYLLSKKTAVNHRIIVKRMQVQLEQAQAQKLGGDSALTETEKKILKAVKSGKPVDYLQSAKGPGGTVTNSEKKILTDLAQRGFMDEVINLMVAYSLGRTRSTNVNREYISKVANDFDFKKIVTAEQGLLALRSGYDKKSQRAKDDSKKKTNVPSWSDPDYDNQTNQADQAKLDEIRRRALAKLEKGKE | soluble
12 | MRPKVSVALATYNGEKYIEEQLESIIKQTRAPDELVICDDCSNDETINIITKKIKNAHFDVKLVSNDKNIGYVQNFSKALEMSSGDIVFLCDQDDVWLSDKIEFIINKFNTRPDIQLLIHDVDYCKEDLTPIGQTKLQRMESNFDIESDYVVGMATAVRRSFLVHCLPVPSAPEVTHDEWLHDCARVLGCKGIVREVLALYRRHSLNVTAPSRLNVDFVTTRHYFGNESLAFLKLFRMETDLGSPDISPLVQWLDSRKMVLLDNGFSSEDRINTFIQYEEKRLRARNSRQSILRLDRWKRLFPIYDLYRSGGYHYYCGWKSALKDLLRTYALEHHHHHH | soluble
13 | MRQSISNDVATISRISAVPAILQVITESTGLGFAAVARVTEDSWTACAVLDNLGFGLKPGGELELISTICHEIRASHKPVVIDHVAEDELFCAHHTPRRYNFQSYISIPIFLTDGSFFGTICALDPKPAKLTGTPIEAMMVSFARLLALQIEAEENMQRVQ | not soluble
14 | MRRKMIMKIIQITDTHLLPPGIAINGVDPENQLRAAVADIVEKHADADLLVMTGDLCNYGEPEAYELLRDILAPVSIPTRLMLGNHDRRPEFVAAFPEQPRDDNGYIQSFIDTEFGRLLFLDSHEADVIGGIYGADRLTWLENALESAGDLPITVFVHHPPMDCGIRHFEHIGMHDDGAIMRRLAAHPAGIRHIVFGHIHVPMAGTTAEGIAYSSGQACAHRFITDIDVVDPLWTGGNPCYRVISLGAFGLRAYDAEVGQPVLGQTPVCEGP | not soluble
